Assays:
PR protein = PR protein levels on over-expression of PSF in 293T cells; format: cell-based; settings: over-expression in 293T cells
activation domains of PR = target: T1, activation domains of PR (Homo sapiens, UniProt P06401); assay: One-hybrid system: PR activation domains fused to Gal4 DBD, G5-Luc reporter and western blot in SHM cells; format: cell-based
T1 construct: expressed in transfected cells; host or cells: SHM (Syrian hamster myocyte) cells
T1 sequence (P06401 556-933): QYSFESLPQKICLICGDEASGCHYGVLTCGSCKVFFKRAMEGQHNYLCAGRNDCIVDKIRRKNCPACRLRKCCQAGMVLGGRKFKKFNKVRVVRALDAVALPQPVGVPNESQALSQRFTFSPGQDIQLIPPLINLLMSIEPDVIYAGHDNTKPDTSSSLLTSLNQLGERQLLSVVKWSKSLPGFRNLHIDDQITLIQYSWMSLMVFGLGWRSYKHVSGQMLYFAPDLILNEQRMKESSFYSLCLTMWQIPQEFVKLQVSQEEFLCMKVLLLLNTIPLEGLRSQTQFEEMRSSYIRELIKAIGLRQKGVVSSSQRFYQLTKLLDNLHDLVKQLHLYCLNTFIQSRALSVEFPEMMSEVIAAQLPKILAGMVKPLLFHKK
Method: FIG. 6 A-F. Inhibition of PR activation domains by PSF involves different mechanisms. Segments containing individual activation domains of PR were fused to Gal4 DNA binding domain in pM vector and cotransfected with or without increasing amounts of His-PSF, together with G5 luciferase reporter vector in SHM cells. Progesterone (10 nM) was added to cells transfected with segments containing PR hormone binding domain (HBD). Luciferase activity was measured 30 hours after transfection and normalized to β-galatosidase acitvity. Data shown are the mean of three separate experiments performed in triplicate±S.E. Whole cell lysate from each transfection was western blotted with anti-Gal4 DNA binding domain (DBD) antibody (Santa Cruz) and anti-His tag antibody H-15 (Santa Cruz). Note: the empty vector pSG5 was added to the DNA mixture to ensure that the amounts of SV40 promoter in all the transfection assays are equal.
For immunoprecipitation of the endogenous PR and PSF, T47D cells cultured in 150 mm dishes were lysed in 800 μl NETN buffer containing 150 mM NaCl plus protease inhibitor cocktail. Cell lysate were then incubated with 5 μg of PR or PSF, or control mouse IgG at 4° C. overnight, followed by the addition of 30 μl of protein A/G PLUS-agarose beads (Santa Cruz) for another two hours at 4° C. Resins were washed with NETN containing 250 mM NaCl and eluted with 1×Laemmli buffer. The eluted proteins along with the whole cell extract were western blotted by PR or PSF antibody. • GST pulldown assay: GST pulldown assay was performed as previously described (20). GST and its fusion proteins were first immobilized to glutathione-Sepharose 4B affinity matrix. The matrix was then incubated at 4° C. overnight with rabbit reticulocyte lysate (Promega) containing PR or His-PSF transcribed and translated in presence of ^35S methionine. The matrix was washed three times with cold NETN buffer before adding 1 ×Laemmli buffer to elute associated proteins. The eluted proteins were separated on 10% SDS-PAGE gel. Gels were treated with Enhancer (NEN, Boston, US) dried and analyzed by autoradiography. • Cell culture and transient transfection: SHM cells and 293T cells were maintained in DMEM plus 5% FCS (Sigma) as described before (22). For experiments involving steroid exposure, the medium was substituted with phenol red free DMEM containing 5% charcoal-treated fetal bovine serum (Hyclone, Utah, USA). Transfection was performed according to manufacturers protocol (Fementas). Cells were seeded at a density to achieve 60-80% confluency the following day. The DNA and transfection reagent were mixed and added to the medium. Cell lysates were collected at least 30 hours after transfection. For luciferase assay, cells were collected in 200 μl of lysis buffer (Promega) of which 10μl was used for the luciferase and β-Gal activity assays respectively. Luciferase activity was determined by using the luciferin reagent (Promega) according to manufacture's protocol. Transfection efficiency was normalized to β-galactosidase activity. For western blots, cell lysates were collected in NETN buffer plus protease inhibitor cocktail. About 30 μg of protein extract was separated on SDS gel electrophoresis followed by western blotting with antibodies of interest. • Electrophoretic Mobility Shift Assay: PRDBD was synthesized in rabbit reticulocyte by using the TNT coupled in vitro transcription-translation system (Promega) with the vector pcDNA3 PRDBD. Full-length PR protein extract was obtained by transiently transfecting 293T cells with Flag-PRB vector. Cells were treated with 10^−8 M progesterone and nuclear fraction was extracted by the NE-PER Nuclear and Cytoplasmic Extraction Reagents Kit (Pierce). The nuclear fraction containing PRs was confirmed by western blot with the PR antibody AB-52 and used in gel shift assay. […]

B1: polypyrimidine tract binding protein-associated splicing factor (protein)
chain: MSRDRFRSRGGGGGGFHRRGGGGGRGGLHDFRSPPPGMGLNQNRGPMGPGPGQSGPKPPIPPPPPHQQQQQPPPQQPPPQQPPPHQPPPHPQPHQQQQPPPPPQDSSKPVVAQGPGPAPGVGSAPPASSSAPPATPPTSGAPPGSGPGPTPTPPPAVTSAPPGAPPPTPPSSGVPTTPPQAGGPPPPPAAVPGPGPGPKQGPGPGGPKGGKMPGGPKPGGGPGLSTPGGHPKPPHRGGGEPRGGRQHHPPYHQQHHQGPPPGGPGGRSEEKISDSEGFKANLSLLRRPGEKTYTQRCRLFVGNLPADITEDEFKRLFAKYGEPGEVFINKGKGFGFIKLESRALAEIAKAELDDTPMRGRQLRVRFATHAAALSVRNLSPYVSNELLEEAFSQFGPIERAVVIVDDRGRSTGKGIVEFASKPAARKAFERCSEGVFLLTTTPRPVIVEPLEQLDDEDGLPEKLAQKNPMYQKERETPPRFAQHGTFEYEYSQRWKSLDEMEKQQREQVEKNMKDAKDKLESEMEDAYHEHQANLLRQDLMRRQEELRRMEELHNQEMQKRKEMQLRQEEERRRREEEMMIRQREMEEQMRRQREESYSRMGYMDPRERDMRMGGGGAMNMGDPYGSGGQKFPPLGGGGGIGYEANPGVPPATMSGSMMGSDMRTERFGQGGAGPVGGQGPRGMGPGTPAGYGRGREEYEGPNKKPRF
notes: expressed from transfected His-PSF vector or in vitro translated
- PR protein levels (PR protein): reduced PR protein levels
- transactivation of PR556-933 (activation domains of PR; PR556-933 (DBD and AF2 domain), 10 nM progesterone): did inhibit transactivation
- protein level of PR556-933 (activation domains of PR; PR556-933, western blot): without any reduction

Source: patent publication US20070286806A1, “Methods and Compositions for Modulating a Steroid Receptor” (Mount Sinai Hospital, priority 2004, published 2007)
